Test results reported in patent US20240417482A1 (CONCEPT TO MEDICINE BIOTECH, published 2024).
Read-outs that look alike come from different tables or passages of the source.

T1: human OX40 protein (human, UniProt P43489 29-214, limits assumed)
T1 construct: Coated protein in ELISA
T1 sequence (looked up): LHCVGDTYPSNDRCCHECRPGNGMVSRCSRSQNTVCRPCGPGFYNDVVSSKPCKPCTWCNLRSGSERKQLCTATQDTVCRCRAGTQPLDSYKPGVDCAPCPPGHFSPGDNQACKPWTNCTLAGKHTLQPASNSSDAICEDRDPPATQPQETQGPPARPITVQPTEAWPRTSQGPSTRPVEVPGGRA

T2: mouse 4-1BB-His protein (mouse, UniProt P20334 24-187)
T2 construct: Recombinant His-tagged protein; also called mouse 4-1BB antigen; not shown: His tag
T2 sequence (looked up): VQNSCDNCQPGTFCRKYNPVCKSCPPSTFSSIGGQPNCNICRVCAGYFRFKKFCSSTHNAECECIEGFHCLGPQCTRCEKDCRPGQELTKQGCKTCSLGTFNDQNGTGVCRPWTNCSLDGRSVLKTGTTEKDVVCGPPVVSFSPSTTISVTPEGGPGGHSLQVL

T3: cynomolgus 4-1BB-His protein (cynomolgus, UniProt A9YYE7 24-186)
T3 construct: Recombinant His-tagged protein; also called cyno 4-1BB antigen; not shown: His tag
T3 sequence: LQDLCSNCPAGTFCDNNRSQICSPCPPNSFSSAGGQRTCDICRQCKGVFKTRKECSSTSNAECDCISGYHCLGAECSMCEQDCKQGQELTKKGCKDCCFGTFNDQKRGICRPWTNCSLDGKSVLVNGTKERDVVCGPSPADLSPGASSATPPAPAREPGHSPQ


Columns and labels:
human 4-1BB-His protein [1] = target: T4, human 4-1BB-His protein (human, UniProt Q07011 24-186); test: SPR, Biacore T200, antibody captured on Protein A chip, human 4-1BB-His as analyte
T4 construct: Recombinant His-tagged protein; also called human 4-1BB-his tag; recombinant 4-1BB protein; not shown: His tag
Protocol: The binding of the humanized antibodies to recombinant human 4-1BB protein (human 4-1BB-his tag) was tested by Biacore using a capture method. […] A serial dilution of human 4-1BB-his tag protein was injected over captured antibody for 30 s at a flow rate of 10 μl/min. The antigen was allowed to dissociate for 360 s. All the experiments were carried out on a Biacore T200.

human CD40 protein = target: T5, human CD40 protein (human, UniProt P25942 21-193); test: ELISA, plate coated with human CD40 0.5 µg/ml
T5 construct: Coated protein in ELISA
T5 sequence (P25942 21-193 limits assumed): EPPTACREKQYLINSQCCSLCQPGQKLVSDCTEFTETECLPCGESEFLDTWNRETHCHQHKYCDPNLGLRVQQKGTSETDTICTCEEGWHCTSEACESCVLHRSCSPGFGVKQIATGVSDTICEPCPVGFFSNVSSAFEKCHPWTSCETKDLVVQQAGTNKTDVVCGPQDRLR
Protocol: (§1) Briefly, microtiter plates were coated with human CD40 protein or human OX40 protein at 0.5 μg/ml in PBS, 100 μl/well at 4° C. overnight, then blocked with 150 μl/well of 1% BSA. […] The plates were washed with PBS/Tween and then incubated with Anti-Human IgG (H&L) (GOAT) Antibody Peroxidase Conjugated for 30 mins at 37° C. After washing, the plates were developed with TMB substrate and analyzed by spectrophotometer at OD 450 nm.

human OX40 protein = target: T1, human OX40 protein; test: ELISA, plate coated with human OX40 0.5 µg/ml
Protocol: as §1

human 4-1BB-His protein [2] = target: T4, human 4-1BB-His protein; test: ELISA, plate coated with human 4-1BB-His, anti-human IgG-HRP
Protocol: Briefly, microtiter plates were coated with human 4-1BB-His protein at 0.5 μg/ml in PBS, 100 μl/well at 4° C. overnight, then blocked with 150 μl/well of 1% BSA. […] The plates were washed with PBS/Tween and then incubated with Anti-Human IgG (H&L) (GOAT) Antibody Peroxidase Conjugated for 30 mins at 37° C. After washing, the plates were developed with TMB substrate and analyzed by spectrophotometer at OD 450 nm.

mouse 4-1BB-His protein [3] = target: T2, mouse 4-1BB-His protein; test: ELISA, plate coated with mouse 4-1BB-His, anti-human IgG-HRP
Protocol: (§2) Microtiter plates were coated with mouse 4-1BB-His protein at 0.5 μg/ml in PBS, 100 μl/well at 4° C. overnight, then blocked with 150 μl/well of 1% BSA. […] The plates were washed with PBS/Tween and then incubated with Anti-Human IgG (H&L) (GOAT) Antibody Peroxidase Conjugated for 30 mins at 37° C. After washing, the plates were developed with TMB substrate and analyzed by spectrophotometer at OD 450 nm.

[4] = target: T3, cynomolgus 4-1BB-His protein; test: ELISA, plate coated with cynomolgus 4-1BB-His, anti-human IgG-HRP
Protocol: Microtiter plates were coated with cynomolgus 4-1BB-His protein at 0.5 μg/ml in PBS, 100 μl/well at 4° C. overnight, then blocked with 150 μl/well of 1% BSA. […] The plates were washed with PBS/Tween and then incubated with Anti-Human IgG (H&L) (GOAT) Antibody Peroxidase Conjugated for 30 mins at 37° C. After washing, the plates were developed with TMB substrate and analyzed by spectrophotometer at OD 450 nm.

human 4-1BB-His protein [5] = target: T4, human 4-1BB-His protein; test: SPR, Biacore T200, antibody captured on Protein A chip, human 4-1BB-His as analyte; remark: listed apart in the source
Protocol: A serial dilution of human 4-1BB-his tag protein was injected over captured antibody for 30 s at a flow rate of 30 μl/min. The antigen was allowed to dissociate for 360 s. All the experiments were carried out on a Biacore T200. Data analysis was carried out using the Biacore T200 evaluation software.

[6] = target: human 4-1BB expressed on cells (human) (UniProt Q07011); test: flow cytometry on HEK293-4-1BB cells, PE anti-human IgG, MFI
human 4-1BB expressed on cells (human), sequence (Q07011 24-255): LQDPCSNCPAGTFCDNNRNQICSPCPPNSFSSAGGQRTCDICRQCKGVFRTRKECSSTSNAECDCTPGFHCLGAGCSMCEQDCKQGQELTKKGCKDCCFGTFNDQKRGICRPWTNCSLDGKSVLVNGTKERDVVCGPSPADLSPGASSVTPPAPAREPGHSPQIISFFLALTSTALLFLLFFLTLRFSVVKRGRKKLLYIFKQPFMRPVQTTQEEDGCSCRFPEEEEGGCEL

mouse 4-1BB-His protein [7] = target: T2, mouse 4-1BB-His protein; test: ELISA, plate coated with mouse 4-1BB-His 0.5 µg/ml
Protocol: as §2

| Kd (human 4-1BB-His protein [1]) [nM] | koff (human 4-1BB-His protein [1]) [s⁻¹] | kon (human 4-1BB-His protein [1]) [M⁻¹ s⁻¹] | binding result (human CD40 protein) | binding result (human OX40 protein) | EC50 (human 4-1BB-His protein [2]) [ng/mL] | EC50 (mouse 4-1BB-His protein [3]) [ng/mL] | EC50 [4] [ng/mL] | Kd (human 4-1BB-His protein [5]) [nM] | koff (human 4-1BB-His protein [5]) [s⁻¹] | kon (human 4-1BB-His protein [5]) [M⁻¹ s⁻¹] | EC50 (read off the curve) [6] [nM] | binding result (mouse 4-1BB-His protein [7]) | Binder |
| --- | --- | --- | --- | --- | --- | --- | --- | --- | --- | --- | --- | --- | --- |
| 2560 | 0.0408 | 15900 |  |  |  |  |  |  |  |  |  |  | B210-V3 humanized antibody (VHH, Humanized VHH; also called B210 VHH-V3) VHH: EVQLVESGGGLVQPGGSLRLSCAASGLTFSYYAIGWFRQAPGKEREGVSCISSSGRSTNYADSVKGRFTISRDNSKNTLYLQMNSLRAEDTAVYYCATDTTTRCPIWSNYVESDYWGQGTLVTVSS |
| 3070 | 0.0266 | 8670 |  |  |  |  |  |  |  |  |  |  | B125-V2 humanized antibody (VHH, Humanized VHH; also called B125 VHH-V2) VHH: EVQLVESGGGLVQPGGSLRLSCAASGFAFSDYAIGWFRQAPGKEREGVSCISSSDGSTYYADSVKGRFTISRDNSKNTLYLQMNSLRAEDTAVYYCATDTTTRCPIWSYYVESDYWGQGTLVTVSS |
| 765 | 0.041 | 53700 |  |  |  |  |  |  |  |  |  |  | B210-V2 humanized antibody (VHH, Humanized VHH; also called B210 VHH-V2) VHH: EVQLVESGGGLVQPGGSLRLSCAASGFTFSYYAIGWFRQAPGKEREGVSCISSSGRSTNYADSVKGRFTISRDNSKNTLYLQMNSLRAEDTAVYYCATDTTTRCPIWSNYVESDYWGQGTLVTVSS |
|  |  |  | no binding | no binding | 2.51 | 402 | 3.91 | 90.4 | 0.00352 | 38900 |  |  | B210 chimeric mAb (VHH, Alpaca VHH tested as 'chimeric mAb') VHH: EVQLVESGGGLVQPGGSLRLSCAASGLSLDYYAIGWFRQAPGKEREGVSCISSSGRSTNYADSVKGRFTISRDNAKNTVYLQMNSLKPEDTADYYCATDTTTRCPIWSNYVESDYWGQGTQVTVSS |
|  |  |  | no binding | no binding | 2.06 | 4.42 | 3.54 | 21 | 0.00818 | 390000 | 3 |  | B125 chimeric mAb (VHH, Alpaca VHH tested as 'chimeric mAb') VHH: QVQLVESGGGLVQPGGSLRLSCAASGFAFSDYAIGWFRQAPGKEREGVSCISSSDGSTYYADSVKGRFTISRDNAKNTVYLQMNSLKPEDTAVYYCATDTTTRCPIWSYYVESDYWGQGTQVTVSS |
| 4.97 | 0.00646 | 1.3e+06 |  |  |  |  |  |  |  |  |  |  | B31-V5 humanized antibody (VHH, Humanized VHH captured on a Protein A chip; also called B31 VHH-V5) VHH: QVQLVESGGGLVQPGGSLRLSCAASGDIFSIMFWYRQPQGKQREYVAHITSNGRTNYADSVTGRFTISRDNNKNTLYLQMDSLRAEDTAVYYCAADDATNTRTYWGQGTLVTVSS |
| 6.58 | 0.00156 | 237000 |  |  |  |  |  |  |  |  |  |  | B31-V6 humanized antibody (VHH, Humanized VHH captured on a Protein A chip; also called B31 VHH-V6) VHH: QVQLVESGGGLVQPGGSLRLSCSASGDIFSIMFWYRQAPGKQREYVAHITSNGRTNYADSVTGRFTISRDNSKNTLYLQMNSLRAEDTAVYYCARDDATNTRTYWGQGTLVTVSS |
|  |  |  | no binding | no binding | 5.2 |  | 4.81 | 0.526 | 0.000546 | 1.04e+06 |  | no binding | B164 chimeric mAb (VHH, Alpaca VHH tested as 'chimeric mAb') VHH: EVQLVESGGGLVQAGGSLRLSCAASGSIFSYMFWYRQPQGKQREYVAHITSGGRTNYADSVTGRFTISRGNNDNTMYLQMNNLKPEDTAVYYCAADDAVYTDRTYWGQGTQVTVSS |

Further lines, the binder ahead of its results:

| Binder | Kd (human 4-1BB-His protein [1]) [nM] | koff (human 4-1BB-His protein [1]) [s⁻¹] | kon (human 4-1BB-His protein [1]) [M⁻¹ s⁻¹] | binding result (human CD40 protein) | binding result (human OX40 protein) | EC50 (human 4-1BB-His protein [2]) [ng/mL] | EC50 (mouse 4-1BB-His protein [3]) [ng/mL] | EC50 [4] [ng/mL] | Kd (human 4-1BB-His protein [5]) [nM] | koff (human 4-1BB-His protein [5]) [s⁻¹] | kon (human 4-1BB-His protein [5]) [M⁻¹ s⁻¹] | EC50 (read off the curve) [6] [nM] | binding result (mouse 4-1BB-His protein [7]) |
| --- | --- | --- | --- | --- | --- | --- | --- | --- | --- | --- | --- | --- | --- |
| B16-V2 humanized antibody (VHH, Humanized VHH; also called B16 VHH-V2) VHH: EVQLVESGGGLVQPGGSLRLSCAASGFTFSYYAIGWFRQAPGKEREGVSCISSSDGSTYYADSVKGRFTISRDNSKNTLYLQMNSLRAEDTAVYYCATDTTTRCPIWSYYVESDYWGQGTLVTVSS | 1930 | 0.0898 | 46500 |  |  |  |  |  |  |  |  |  |  |
| B16 chimeric mAb (VHH, Alpaca VHH tested as 'chimeric mAb') VHH: QVQLVESGGGLVQPGGSLRLSCAASGFTLDYYAIGWFRQAPGKEREGVSCISSSDGSTYYADSVKGRFTISRDNAKNTVYLQMNSLKPEDTAVYYCATDTTTRCPIWSYYVESDYWGQGTQVTVSS |  |  |  | no binding | no binding | 10.6 | 16.3 | 19.5 | 21.5 | 0.00739 | 343000 |  |  |
| B31-V3 humanized antibody (VHH, Humanized VHH captured on a Protein A chip; also called B31 VHH-V3) VHH: QVQLVESGGGLVQPGGSLRLSCAASGDIFSIMFWYRQAPGKQREYVAHITSNGRTNYADSVTGRFTISRDNNKNTLYLQMNSLRAEDTAVYYCAADDATNTRTYWGQGTLVTVSS | 13.6 | 0.00716 | 526000 |  |  |  |  |  |  |  |  |  |  |
| B31-V2 humanized antibody (VHH, Humanized VHH expressed in 293F cells and captured on a Protein A chip; also called B31 VHH-V2) VHH: QVQLVESGGGLVQPGGSLRLSCSASGDIFSIMFWYRQAPGKQREYVSHITSNGRTNYADSVTGRFTISRDNSKNTLYLQMNSLRAEDTAVYYCAADDATNTRTYWGQGTLVTVSS | 13.1 | 0.0068 | 517000 |  |  |  |  |  |  |  |  |  |  |
| B31-V4 humanized antibody (VHH, Humanized VHH captured on a Protein A chip; also called B31 VHH-V4) VHH: QVQLVESGGGLVQPGGSLRLSCAASGDIFSIMFWYRQAPGKQREYVAHITSNGRTNYADSVTGRFTISRDNSKNTMYLQMDSLRAEDTAVYYCAADDATNTRTYWGQGTLVTVSS | 4.74 | 0.00545 | 1.15e+06 |  |  |  |  |  |  |  |  |  |  |
